Assay results taken from patent US20050214890.

Tested on: GST-RFP-SPSS/FXa-GFP-His6 fluorescent fusion protein [GST: P08515]

coagulation factor Xa
SDS-PAGE and Western blot of substrate cleavage products (GST-RFP and GFP-His): demonstrated specific cleavage of the substrate by FXa, as the amounts of the native proteins decreased while the amounts of the two truncated products (GST-RFP and GFP-His) increased with increasing concentrations of FXa
